Patent US20160017341A1

Target: B-lymphocyte antigen CD20 (UniProt P11836)
Assay: direct binding of I-125 labeled antibody

Sequence of UniProt P11836 (P11836 whole entry): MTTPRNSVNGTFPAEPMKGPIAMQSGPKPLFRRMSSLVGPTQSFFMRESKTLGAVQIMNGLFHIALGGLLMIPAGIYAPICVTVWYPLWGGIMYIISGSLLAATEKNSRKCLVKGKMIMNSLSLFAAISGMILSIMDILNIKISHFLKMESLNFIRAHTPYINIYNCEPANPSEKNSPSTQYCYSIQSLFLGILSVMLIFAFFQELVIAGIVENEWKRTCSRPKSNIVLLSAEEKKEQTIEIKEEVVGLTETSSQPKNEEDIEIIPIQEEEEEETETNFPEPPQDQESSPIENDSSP

anti-CD20 monoclonal antibody 2B8 showed an apparent affinity constant (Kap) of 3.5 nM.
